We go through 1 molecule from US20110165564, “SEQUENCE-SPECIFIC DETECTION OF METHYLATION IN BIOMOLECULES” (MAX-PLANCK-GESELLSCHAFT ZUR FÖRDERUNG DER …, published 2011).

The target of the data set is T1, M.HhaI (DNA cytosine-5 methyltransferase) (Haemophilus haemolyticus, UniProt P05102 P05102:1-327).
T1 sequence: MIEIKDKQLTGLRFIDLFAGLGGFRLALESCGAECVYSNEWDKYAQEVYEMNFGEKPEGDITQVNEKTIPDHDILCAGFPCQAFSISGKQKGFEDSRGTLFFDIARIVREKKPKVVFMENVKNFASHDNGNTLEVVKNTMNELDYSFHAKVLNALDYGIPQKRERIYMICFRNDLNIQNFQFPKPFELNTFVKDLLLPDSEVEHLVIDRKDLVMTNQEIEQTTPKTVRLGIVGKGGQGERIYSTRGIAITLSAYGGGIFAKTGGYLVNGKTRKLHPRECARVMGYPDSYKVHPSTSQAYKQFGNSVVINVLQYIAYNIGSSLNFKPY
The experiment in a line: anion exchange HPLC; coupling of aziridine cofactors 1, 2, 3 almost complete; non-covalent M.HhaI-product DNA complex; 10 mM Tris pH 7.4, 50 mM NaCl, 37 C. Here is the method:
Solutions (400 μL) of aziridine cofactor 1, 2 or 3 (32 nmol, 80 μM), duplex oligodeoxynucleotide I-II (4 nmol, 10 μM) and M.HhaI (4.4 nmol, 11 μM) in buffer (10 mM Tris hydrochloride, pH 7.4, 50 mM sodium chloride, 0.05 mM ethylenediaminetetraacetic acid and 2 mM β-mercaptoethanol) were incubated at 37° C. The progress of the coupling reactions was monitored by anion exchange HPLC (Poros 10 HQ, 10 μm, 4.6×10 mm, Applied Biosystems). Compounds were eluted with aqueous potassium chloride (0.2 M for 5 min, followed by linear gradients to […], to 0.6 M in 20 min and to 1 M in 5 min) in Tris hydrochloride buffer (10 mM, pH 7.6) at a flow of 4 mL/min. […] These new compounds are assigned to non-covalent protein-DNA complexes between M.HhaI and the coupling products I¹-II, I²-II and I³-II based on their UV absorption ratio at 260 nm and 280 nm.
The presence and functionality of biotin groups in I¹-II, I²-II and I³-II were verified by addition of streptavidin. Residual aziridine cofactors 1, 2 or 3 were first removed from the labelled duplexes I¹-II, I²-II or I³-II by gel filtration using NAP-5 columns (Amersham Biosciences, Freiburg, Germany) according to the instructions of the supplier. Afterwards, streptavidin (25 μg) was added to the solutions (25 μL, 0.25 nmol I¹-II, I²-II or I³-II) and incubation was performed at 37° C. for 30 min.

B1: duplex I-II (hemimethylated) (dsDNA)
DNA 1: TGTCAGCGCATGA
DNA 2: TCATGCGCTGACA
modifications: 5mC at M in lower strand 5'-…-3'
For B1, the binding result is on record as “binds”.
